Assay results published in PMC11237593, “Human coronavirus OC43 nanobody neutralizes virus and protects mice from infection” (Journal of Virology, 2024).

T1: OC43 S1B+C (S1B and S1C domains of the hCoV-OC43 spike glycoprotein) (human coronavirus OC43, UniProt P36334 321-675)
T1 construct: also called recombinant OC43 S1B+C; recombinant OC43 protein; source: Expi293F, transfected, purified from supernatant (Ni-NTA IMAC, SEC); not shown: His6, C-terminal, cleaved
T1 sequence (looked up): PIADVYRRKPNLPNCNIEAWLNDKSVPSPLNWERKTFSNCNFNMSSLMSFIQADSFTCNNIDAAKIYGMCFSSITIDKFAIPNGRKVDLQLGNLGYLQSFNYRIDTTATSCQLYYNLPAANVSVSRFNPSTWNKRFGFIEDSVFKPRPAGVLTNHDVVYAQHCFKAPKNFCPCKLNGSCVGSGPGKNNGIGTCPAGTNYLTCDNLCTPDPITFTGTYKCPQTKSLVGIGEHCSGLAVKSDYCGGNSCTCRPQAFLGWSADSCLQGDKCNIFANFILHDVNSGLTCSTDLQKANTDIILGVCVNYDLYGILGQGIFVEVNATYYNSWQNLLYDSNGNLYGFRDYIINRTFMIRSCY


Each binder was assayed against T1, OC43 S1B+C (S1B and S1C domains of the …) (assay: not given). Details: both partners purified.

Row | Binder | Kd | koff | kon
1 | WNbFc 293 (Fc fusion, also called WNb 293-Fc; WNb 293-Fc fusion; source: Expi293F, transfected, purified from supernatant (MabSelect Prism A, SEC)) QVQLQESGGGSVQAGDSLRLSCVASGRTFSSYALGWFRRAPGKEREFVAAISWSGGTTYYADSVKGRFTISRDNAKNTVYLQMNSLKPEDTAVYYCAALWDGGSWYPEGLSDFGSWGQGTQVTVSS | 7.51 nM | 0.000758 s⁻¹ | 101000 M⁻¹ s⁻¹
2 | WNbFc 294 (Fc fusion, source: Expi293F, transfected, purified from supernatant (MabSelect Prism A, SEC)) QVQLQESGGGLVQAGGSLRLSCAASGRTFSSYAMGWFRQAPGKEREFVAAISWSGGTTYYGDSVKGRFTISRDNAKNTVYLQMNSLKPEDTAVYYCAAQGDGGSWFPEGLADFGSWGQGTQVTVSS | 36.9 nM | 0.00164 s⁻¹ | 45000 M⁻¹ s⁻¹

These binders were tested against T1, OC43 S1B+C (S1B and S1C domains of the …) (assay: BLI). Details: both partners purified.

Row | Binder | Kd | koff | kon
3 | WNb 282 (VHH) VHH: QVQLQESGGGLVQAGDSLRLSCAASGRTFSDYFMGWFRQAPGKEREFVASISWSGGTTYYADSVKGRFTISRDNAKNTVYLQMNRVKSEDTAVYYCAAARDMGWGRTGENEYDYWGQGTQVTVSS | 2.46 nM | 0.000195 s⁻¹ | 79000 M⁻¹ s⁻¹
4 | WNb 281 (VHH) VHH: QVQLQESGGGLVQAGGSLRLSCAASGRTFSDYFMGWFRQAPGKEREFVTAISWSGGSTYYADSVKGRFTISRDNAKNTVFLQMNSLKPEDTAVYYCAAALDEGWARVAGPEYDYWGQGTQVTVSS | 1.55 nM | 0.000183 s⁻¹ | 118000 M⁻¹ s⁻¹
5 | WNb 288 (VHH) VHH: QVQLQESGGGLVQAGGSLRLSCAASGRTFSDYFMGWFRQAPGKEREFVAAISWSGGSTYYADSVKGRSTISRDNAKNTVYLQMNSLKPEDTAVYYCAADHDRGWARLRLAEYDYWGQGTQVTVSS | 19.6 nM | 0.00124 s⁻¹ | 64000 M⁻¹ s⁻¹
6 | WNb 284 (VHH) VHH: QVQLQESGGGLVQAGGPLRLSCAASGRTFSDYFMGWFRQAPGMEREFVASISWSGGTTYYADSVKGRFTISRDNAKNTVYLQMNSLKPEDTAVYYCAAAIDYGLGLTVEYEYDYWGQGTQVTVSS | 4.01 nM | 0.000363 s⁻¹ | 91000 M⁻¹ s⁻¹
7 | WNb 296 (VHH) VHH: QVQLQESGGGLVQAGGSLRLSCAASGRTFSDYFMGWFRQAPGKEREFVASISWSGGTTYYADSVKGRFTISRDNANNTVYLQMNSLKPVDTAVYYCAAVADYGLGLTTSYEYDYWGQGTQVTVSS | 15.3 nM | 0.000786 s⁻¹ | 51000 M⁻¹ s⁻¹
8 | WNb 292 (VHH) VHH: QVQLQESGGGLVQAGASLRLSCAASGRTFSDYAMGWFRQAPGKEREFVAAISWSGGTTYYADSVKGRFTISRDNAKNTVYLQMNSLKPEDTAVYYCAANTDYGLGLVRAYEYDYWGQGTQVTVSS | 15.6 nM | 0.00116 s⁻¹ | 75000 M⁻¹ s⁻¹
9 | WNb 278 (VHH) VHH: QVQLQESGGGLVQAGGSLRLSCAASGRTFSDYFMGWFRQAPGMEREFVASISWSGGTTYYADSVKGRFTISRDNTKNTVYLQMNSLKPEDTAVYYCATAIDYGLGLTVEYEYDYWGQGTQVTVSS | 5.93 nM | 0.0004 s⁻¹ | 68000 M⁻¹ s⁻¹
10 | WNb 294 (VHH) VHH: QVQLQESGGGLVQAGGSLRLSCAASGRTFSSYAMGWFRQAPGKEREFVAAISWSGGTTYYGDSVKGRFTISRDNAKNTVYLQMNSLKPEDTAVYYCAAQGDGGSWFPEGLADFGSWGQGTQVTVSS | 26 nM | 0.00106 s⁻¹ | 41000 M⁻¹ s⁻¹
11 | WNb 293 (VHH) VHH: QVQLQESGGGSVQAGDSLRLSCVASGRTFSSYALGWFRRAPGKEREFVAAISWSGGTTYYADSVKGRFTISRDNAKNTVYLQMNSLKPEDTAVYYCAALWDGGSWYPEGLSDFGSWGQGTQVTVSS | 4.6 nM | 0.000417 s⁻¹ | 91000 M⁻¹ s⁻¹
12 | WNb 285 (VHH) VHH: QVQLQESGGGLVQAGGSLRLSCAASGRTFSDYAMGWFRQAPGKEREFVAAISWSGGTTYYADSVKGRFTISRDNAKNTVYLQMNSLTPEDTAVYYCAADYDYGWGRVRVSEYDYWGQGTQVTVSS | 4.23 nM | 0.000447 s⁻¹ | 106000 M⁻¹ s⁻¹
13 | WNb 291 (VHH) VHH: QVQLQESGGGLVQAGGSLRLSCAASGRTFSNYFMGWFRQAPGKEREFVAAISWSGGTTYYADSVKGRFTISRDNAKNTVYLQMNSLKPEDTAVYYCAANTDYGMGFVRAYEYDYWGQGTQVTVSS | 11.7 nM | 0.000527 s⁻¹ | 45000 M⁻¹ s⁻¹
14 | WNb 287 (VHH) VHH: QLQESGGGLVQPGGSLRLSCAASGRTFSFSDYAMGWFRQAPGKEREFVASISWSGGTTYYADSVKGRFTISRDNAKNTVYLQMNSLKPEDTAVYYCAAEIDRGLLLHAVYEYDYWGQGTQVTVSS | 11.2 nM | 0.000933 s⁻¹ | 84000 M⁻¹ s⁻¹
15 | WNb 286 (VHH) VHH: QVQLQESGGGLVQAGGSLRLSCAASGRTFSSYAMGWFHQAPGKEREFVASISWSGGTTYYADSVKGRFTISRDNAKNTVYLQMNSLKPEDTAVYYCAAAVDYGLGLYRVGEYDSWGQGTQVTVSS | 58.8 nM | 0.00245 s⁻¹ | 42000 M⁻¹ s⁻¹
16 | WNb 276 (VHH) VHH: QVQLQESGGGLVQSGGSLRLSCAASGFTFSNYGMMWVRQAPGKGVEWVSRIDSDGTITLYKDSVKGRFTISRDNAKNMLYLQMESLKPEDTALYYCIKVMDWVPGRAPPFRGQGTQVTVSS | 6.46 nM | 0.000518 s⁻¹ | 82000 M⁻¹ s⁻¹
17 | WNb 297 (VHH) VHH: QVQLQESGGGSVQAGGSLRLSCAASGRTFSDYAMGWFRQAPGKEREFVASISWSGGTTYYADSVKGRFTISRDNAKNTVYLQMNSLKPEDTAVYYCAADTDYGMGLITVPDFGSWGQGTQVTVSS | 21.4 nM | 0.00199 s⁻¹ | 93000 M⁻¹ s⁻¹
18 | WNb 298 (VHH) VHH: QVQLQESGGGLVQPGGSLRLSCAASGRTFSDYFMGWFRQAPGKEREFVASISWSGGTTYYADSVKGRFTISRDNAKNTVYLQMNSLKPEDTAVYYCAAEIDYGLGLHAAADFGSWGQGTQVTVSS | 8.94 nM | 0.000987 s⁻¹ | 111000 M⁻¹ s⁻¹
19 | WNb 299 (VHH) VHH: QVQLQESGGGWVQPGGSLRLSCAASGFTFSNYAMGWFRQAPGKEREFVATISWSGGTTVYADSVKGRFTISRDNAKNTVYLQMNSLKPEDTAVYYCAAASDYGMVQMSDYEYDYWGQGTQVTVSS | 9.9 nM | 0.00103 s⁻¹ | 104000 M⁻¹ s⁻¹
20 | WNb 289 (VHH) VHH: QVQLQESGGGLVQAGGSLRLSCAASGRTFSDYAMGWFRQAPGKEREFVATISWSGGTTYYADSVKGRFTISRDNAKNTVYLQMNSLKPEDTAVYYCAAVMDLGMLAADGYEYDYWGQGTQVTVSS | 4.73 nM | 0.000629 s⁻¹ | 132000 M⁻¹ s⁻¹
21 | WNb 280 (VHH) VHH: QVQLQESGGGLVQAGGSLRLSCAASGRTFSNYFMGWFRQAPGKEREFVAAISWSGGSTYYTDSVKGRFTISRDNAKNTVYLQMNSLKPEDTAVYYCAGGLDMGWSRVNLGEYDYWGQGTQVTVSS | 22.9 nM | 0.00161 s⁻¹ | 70000 M⁻¹ s⁻¹
22 | WNb 279 (VHH) VHH: QVQLQESGGGLVQPGGSLRLSCAASGRTFSDYFMGWFRQAPGKEREFVAAITWSGGSTYYTDSVKGRFTISRDNAKNTVYLQMNSLKPEDTAVYYCAGGLDMGWSRVALGEYDYWGQGTQVTVSS | 149 nM | 0.0086 s⁻¹ | 58000 M⁻¹ s⁻¹
